# Measured values published in paper PMC3708604 (Methods in molecular biology (Clifton, N.J.), 2013).
# B1: Full-length FLAG-epitope-tagged human ERα (receptor, UniProt P03372 1-595, looked up)
# chain: MTMTLHTKASGMALLHQIQGNELEPLNRPQLKIPLERPLGEVYLDSSKPAVYNYPEGAAYEFNAAAAANAQVYGQTGLPYGPGSEAAAFGSNGLGGFPPLNSVSPSPLMLLHPPPQLSPFLQPHGQQVPYYLENEPSGYTVREAGPPAFYRPNSDNRRQGGRERLASTNDKGSMAMESAKETRYCAVCNDYASGYHYGVWSCEGCKAFFKRSIQGHNDYMCPATNQCTIDKNRRKSCQACRLRKCYEVGMMKGGIRKDRRGGRMLKHKRQRDDGEGRGEVGSAGDMRAANLWPSPLMIKRSKKNSLALSLTADQMVSALLDAEPPILYSEYDPTRPFSEASMMGLLTNLADRELVHMINWAKRVPGFVDLTLHDQVHLLECAWLEILMIGLVWRSMEHPGKLLFAPNLLLDRNQGKCVEGMVEIFDMLLATSSRFRMMNLQGEEFVCLKSIILLNSGVYTFLSSTLKSLEEKDHIHRVLDKITDTLIHLMAKAGLTLQQQHQRLAQLLLILSHIRHMSNKGMEHLYSMKCKNVVPLYDLLLEMLDAHRLHAPTSRGGASVEETDQSHLATAGSTSSHSLQKYYITGEAEGFPATV
# Legend:
# [1] = target: B1; assay: fluorescence polarisation
# [2] = target: Full-length FLAG-epitope-tagged human SRC1a (human, UniProt Q15788-1 1-1441); assay: fluorescence polarisation
# Sequence of Full-length FLAG-epitope-tagged human SRC1a (Q15788 whole entry): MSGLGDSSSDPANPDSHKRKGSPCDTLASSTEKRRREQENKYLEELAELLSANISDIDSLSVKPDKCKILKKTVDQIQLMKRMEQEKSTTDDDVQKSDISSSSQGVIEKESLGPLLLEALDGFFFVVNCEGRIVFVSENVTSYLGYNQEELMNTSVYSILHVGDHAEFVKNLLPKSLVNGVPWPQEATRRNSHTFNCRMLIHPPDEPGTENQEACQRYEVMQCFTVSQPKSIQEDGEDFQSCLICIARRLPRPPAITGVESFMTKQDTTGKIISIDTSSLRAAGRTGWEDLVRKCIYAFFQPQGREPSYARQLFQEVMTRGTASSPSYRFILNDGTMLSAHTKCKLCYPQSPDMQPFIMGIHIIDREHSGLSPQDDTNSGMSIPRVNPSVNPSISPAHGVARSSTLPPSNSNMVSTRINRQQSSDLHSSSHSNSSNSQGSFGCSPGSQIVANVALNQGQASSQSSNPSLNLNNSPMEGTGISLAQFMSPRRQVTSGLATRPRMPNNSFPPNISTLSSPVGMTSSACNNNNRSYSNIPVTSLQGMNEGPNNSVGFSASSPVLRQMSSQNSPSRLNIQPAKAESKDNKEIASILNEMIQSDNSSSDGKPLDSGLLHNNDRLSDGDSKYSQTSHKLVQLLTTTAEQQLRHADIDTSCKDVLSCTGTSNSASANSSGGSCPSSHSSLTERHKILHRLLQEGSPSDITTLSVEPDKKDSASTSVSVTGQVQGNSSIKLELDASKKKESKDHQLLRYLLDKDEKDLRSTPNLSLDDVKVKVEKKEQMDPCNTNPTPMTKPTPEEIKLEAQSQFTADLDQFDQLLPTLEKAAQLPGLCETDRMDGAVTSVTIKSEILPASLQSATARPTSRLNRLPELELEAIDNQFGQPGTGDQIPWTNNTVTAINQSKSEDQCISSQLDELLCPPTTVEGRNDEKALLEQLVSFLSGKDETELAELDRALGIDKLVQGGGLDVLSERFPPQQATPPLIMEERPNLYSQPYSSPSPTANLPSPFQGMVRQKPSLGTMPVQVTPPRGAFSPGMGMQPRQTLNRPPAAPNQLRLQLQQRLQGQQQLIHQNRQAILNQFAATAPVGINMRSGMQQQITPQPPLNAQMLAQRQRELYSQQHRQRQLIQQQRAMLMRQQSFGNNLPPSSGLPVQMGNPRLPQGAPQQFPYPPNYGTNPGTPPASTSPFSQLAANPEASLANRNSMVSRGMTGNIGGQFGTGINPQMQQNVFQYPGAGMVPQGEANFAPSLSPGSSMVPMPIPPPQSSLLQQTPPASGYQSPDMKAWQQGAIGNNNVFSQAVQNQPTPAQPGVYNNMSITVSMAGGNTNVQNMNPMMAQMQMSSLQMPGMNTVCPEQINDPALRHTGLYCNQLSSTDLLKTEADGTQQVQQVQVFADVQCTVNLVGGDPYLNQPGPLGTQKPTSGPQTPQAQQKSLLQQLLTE
IC50 [1],Kd [2],Binder
~1 µM,–,LTERHKILHRLLQE [SRC1 NR Box 2 peptide]
~3.8 µM,–,QAQQKSLLQQLLTE [SRC1 NR Box 4 peptide]
–,~0.014 µM,B1
–,~0.006 µM,"FLAG-epitope-tagged human ERβ (receptor, UniProt Q92731 1-530, looked up) MDIKNSPSSLNSPSSYNCSQSILPLEHGSIYIPSSYVDSHHEYPAMTFYSPAVMNYSIPSNVTNLEGGPGRQTTSPNVLWPTPGHLSPLVVHRQLSHLYAEPQKSPWCEARSLEHTLPVNRETLKRKVSGNRCASPVTGPGSKRDAHFCAVCSDYASGYHYGVWSCEGCKAFFKRSIQGHNDYICPATNQCTIDKNRRKSCQACRLRKCYEVGMVKCGSRRERCGYRLVRRQRSADEQLHCAGKAKRSGGHAPRVRELLLDALSPEQLVLTLLEAEPPHVLISRPSAPFTEASMMMSLTKLADKELVHMISWAKKIPGFVELSLFDQVRLLESCWMEVLMMGLMWRSIDHPGKLIFAPDLVLDRDEGKCVEGILEIFDMLLATTSRFRELKLQHKEYLCVKAMILLNSSMYPLVTATQDADSSRKLAHLLNAVTDALVWVIAKSGISSQQQSMRLANLLMLLSHVRHASNKGMEHLLNMKCKNVVPVYDLLLEMLNAHVLRGCKSSITGSECSPAEDSKSKEGSQNPQSQ"
